Where a chain is given by its changes, count along the chain named.
T1: MERS-CoV (SARS-CoV-2) Spike Protein (ECD, aa 1-1297, His Tag) (Sino 40069-[change]) (MERS-CoV, UniProt K9N5Q8 18-1297)
T1 sequence: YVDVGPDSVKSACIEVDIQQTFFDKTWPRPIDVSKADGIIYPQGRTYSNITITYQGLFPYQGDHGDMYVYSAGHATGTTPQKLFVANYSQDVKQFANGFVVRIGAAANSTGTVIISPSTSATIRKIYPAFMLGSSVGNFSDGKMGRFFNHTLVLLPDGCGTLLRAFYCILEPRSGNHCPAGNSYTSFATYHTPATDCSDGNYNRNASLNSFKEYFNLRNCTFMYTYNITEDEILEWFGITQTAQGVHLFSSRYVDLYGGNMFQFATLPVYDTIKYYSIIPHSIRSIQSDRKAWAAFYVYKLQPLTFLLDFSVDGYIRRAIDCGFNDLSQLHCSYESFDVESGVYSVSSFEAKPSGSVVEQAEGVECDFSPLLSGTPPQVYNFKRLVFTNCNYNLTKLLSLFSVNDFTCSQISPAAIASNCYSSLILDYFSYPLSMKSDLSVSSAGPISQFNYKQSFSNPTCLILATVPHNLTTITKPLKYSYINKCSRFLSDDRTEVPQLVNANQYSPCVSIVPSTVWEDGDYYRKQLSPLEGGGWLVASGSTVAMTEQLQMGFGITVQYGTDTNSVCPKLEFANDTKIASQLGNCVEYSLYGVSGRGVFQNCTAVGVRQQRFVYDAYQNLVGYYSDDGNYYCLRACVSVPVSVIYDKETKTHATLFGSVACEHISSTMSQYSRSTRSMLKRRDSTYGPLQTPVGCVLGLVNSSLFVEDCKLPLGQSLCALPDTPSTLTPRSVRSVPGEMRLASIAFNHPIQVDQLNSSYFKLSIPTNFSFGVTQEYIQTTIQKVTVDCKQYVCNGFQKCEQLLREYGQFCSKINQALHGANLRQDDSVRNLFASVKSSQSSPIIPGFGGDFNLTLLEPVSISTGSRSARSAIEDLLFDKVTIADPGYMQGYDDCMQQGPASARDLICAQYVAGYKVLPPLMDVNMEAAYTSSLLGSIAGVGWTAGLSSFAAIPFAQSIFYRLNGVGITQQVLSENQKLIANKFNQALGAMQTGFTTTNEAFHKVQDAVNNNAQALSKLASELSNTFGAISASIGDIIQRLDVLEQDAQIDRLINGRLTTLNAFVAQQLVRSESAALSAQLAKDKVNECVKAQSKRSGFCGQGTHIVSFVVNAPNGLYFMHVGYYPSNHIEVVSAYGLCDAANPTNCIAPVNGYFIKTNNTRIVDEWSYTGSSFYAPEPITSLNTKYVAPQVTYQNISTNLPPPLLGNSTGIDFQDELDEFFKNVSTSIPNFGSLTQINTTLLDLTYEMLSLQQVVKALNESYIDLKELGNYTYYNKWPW

T2: MERS-CoV (SARS-CoV-2) Spike Protein S2 (aa 726-1296, His Tag) (Sino 40070-[change]) (MERS-CoV, UniProt K9N5Q8 726-1296)
T2 sequence: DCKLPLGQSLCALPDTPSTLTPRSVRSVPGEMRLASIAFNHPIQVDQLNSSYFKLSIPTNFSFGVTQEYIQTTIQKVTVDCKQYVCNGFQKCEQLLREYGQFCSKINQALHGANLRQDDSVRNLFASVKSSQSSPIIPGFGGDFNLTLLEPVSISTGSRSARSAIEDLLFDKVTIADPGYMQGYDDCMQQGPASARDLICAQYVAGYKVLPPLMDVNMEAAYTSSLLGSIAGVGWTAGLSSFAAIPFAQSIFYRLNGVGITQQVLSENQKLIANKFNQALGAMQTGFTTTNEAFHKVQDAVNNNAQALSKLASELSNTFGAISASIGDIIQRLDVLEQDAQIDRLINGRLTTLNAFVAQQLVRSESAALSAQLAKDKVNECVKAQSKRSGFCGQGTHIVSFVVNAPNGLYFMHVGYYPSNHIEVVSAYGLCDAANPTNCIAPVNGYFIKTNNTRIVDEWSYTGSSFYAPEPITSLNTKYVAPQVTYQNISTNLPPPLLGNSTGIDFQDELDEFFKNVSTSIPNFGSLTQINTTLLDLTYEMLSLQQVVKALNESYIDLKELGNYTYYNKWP

T3: MERS-CoV (SARS-CoV-2) Spike Protein (ECD, aa 1-1297, His Tag) (Sino 40069-[change]) (MERS-CoV, UniProt K9N5Q8 18-1297)
T3 sequence: T1 sequence

T4: MERS-CoV (SARS-CoV-2) Spike Protein S2 (aa 726-1296, His Tag) (Sino 40070-[change]) (MERS-CoV, UniProt K9N5Q8 726-1296)
T4 sequence: T2 sequence

B1: mAb10934 (antibody, V domains shown)
VH: not shown
VL: DIQMTQSPSSLSASVGDRVTITCQASQDIWNYINWYQQKPGKAPKLLIYDASNLKTGVPSRFSGSGSGTDFTFTISSLQPEDIATYYCQQHDDLPPTFGQGTKVEIKR
B2: mAb10915 (antibody, V domains shown)
VH: EVQLVESGGGLVQPGGSLRLSCAASGFTVSSNYMNWVRQAPGKGLEWVSVIYSGGSTFYADSVKGRFTISRHNSKNTLYLQMNSLRPEDTAVYYCARDLGGYFDYWGQGTLVTVSS
VL: not shown
B3: mAb10933 (antibody, V domains shown)
VH: QVQLVESGGGLVKPGGSLRLSCAASGFTFSDYYMSWIRQAPGKGLEWVSYITYSGSTIYYADSVKGRFTISRDNAKSSLYLQMNSLRAEDTAVYYCARDRGTTMVPFDYWGQGTLVTVSS
VL: B1 VL with W30T, I33L, D50A, K55E, S77G, H91Y, D93N, P96L, Q100G
B4: mAb10969 (antibody, V domains shown)
VH: QVQLVESGGGVVQPGRSLRLSCAASGFTFSSYAMHWVRQAPGKGLEWVAVISYDGSNKYYADSVKGRFTISRDNSKNTLYLQMNSLRAEDTAVYYCARDGRTITMVRGVIDDAFDIWGQGTMVTVSS
VL: not shown
B5: mAb10965 (antibody, V domains shown)
VH: EVQLVESGGGLIQPGGSLRLSCAASVFTVSYNYMSWVRQAPGKGLEWVSVIYSGGSTYYADSVKGRFTISRDNSKNTLYLQMNSLRAEDTAVYYCARALPGWGGSFEYFDYWGQGTLVTVSS
VL: not shown
B6: mAb10989 (antibody, V domains shown)
VH: QVQLVQSGAEVKKPGASVKVSCKASGYIFTGYYMHWVRQAPGQGLEWMGWINPNSGGANYAQKFQGRVTLTRDTSITTVYMELSRLRFDDTAVYYCARGSRYDWNQNNWFDPWGQGTLVTVSS
VL: QSALTQPASVSGSPGQSITISCTGTSSDVGTYNYVSWYQQHPGKAPKLMIFDVSNRPSGVSDRFSGSKSGNTASLTISGLQAEDEADYYCSSFTTSSTVVFGGGTKLTVLG
B7: mAb10971 (antibody, V domains shown)
VH: EVQLVESGGGLIQPGGSLRLSCAASGVTVSSNYMSWVRQAPGKGLEWVSVIYSGGSTFYSDSVKGRFSISRDNSKNTLYLQMNSLRAEDTAVYYCARDLYYYGMDVWGQGTTVTVSS
VL: DIQLTQSPSFLSASVGDRVTITCRASQGISTYLAWYQQKPGKAPKLLIYAASTLQSGVPSRFSGSGSGTEFTLTISSLQPEDFATYYCQQLDSYPGLTFGGGTKVEIKR
B8: mAb10956 (antibody, V domains shown)
VH: B7 VH with I12V, V27L, S60A, S68T, Y100I, Y101K
VL: not shown
B9: mAb10957 (antibody, V domains shown)
VH: B7 VH with I12V, S60A, S68T, Y79F, A87I, Y100G, Y101P
VL: B7 VL with T31S, E70Q, T72I, D92N, L97F, G101P, E106D
B10: mAb10967 (antibody, V domains shown)
VH: EVQLVESGGGLVQPGGSLRLSCAASGFTVSSNYMSWVRQAPGKGLEWVSVIYPGGSTFYADSVKGRFTISRDNSKNTLYLQMNSLRAEDTAVYYCARDQRDFAWGQGTLVTVSS
VL: B1 VL with W30S, I33L, K55E, S77G, H91Y, D93N, K103R, V104L
B11: mAb10954 (antibody, V domains shown)
VH: EVQLVESGGGLVQPGGSLRLSCAASGITVSSNYMSWVRQAPGKGLEWVSLIYSGGSTYYADSVKGRFTISRDNSKNTLYLQMNSLRVEDTAVYYCARDHGMAAAGYNYWGQGTLVTVSS
VL: B1 VL with W30N, N31K, I33L, K55E, S76N, I83F, Y87F, H91Y, D93N, T97A
B12: mAb10955 (antibody, V domains shown)
VH: EVQLVESGGGLVQPGGSLRVSCAASGFTVSRNYMSWVRQAPGKGLEWVSVIYSGGSTFYADSVKGRFTISRDNSKNTLYLQMNSLRAEDTAIYYCARYIPRFDPWGQGTLVTVSS
VL: B1 VL with W30S, I33L, Y36F, K42R, K55E, H91Y, D93N, P96I, K103R, V104L
B13: mAb10964 (antibody, V domains shown)
VH: QVQLQESGPGLVKPSETLSLTCTVSGGSINNYYWIWIRQPPGKGLEWIGYIYHSGSTNYNPSLKSRVTISVDTSKNQFSLKVSSVTAADTAVYYCANMVRGVYEDDYWGQGTLVTVSS
VL: DIQMTQSPSSLSASVGDRVTITCRASQSISNYLNWYQQKPGKAPKLLIFAASSLRSGVPSRFSGSGSGTDFTLTISSLHPEDFATYYCQQNYNTPLTFGPGTKVDIKR
B14: mAb10966 (antibody, V domains shown)
VH: EVQLVESGGGLVQPGGSLRLSCAASGLTVSSNYMSWVRQAPGKGLEWVSVIYSGGSTFYADSVKGRFTISRDNSKNTLYLQMNSLRPEDTAVYYCAREGRIAATGYGMDVWGQGTTVTVSS
VL: not shown
B15: mAb10987 (antibody, V domains shown)
VH: QVQLVESGGGVVQPGRSLRLSCAASGFTFSNYAMYWVRQAPGKGLEWVAVISYDGSNKYYADSVKGRFTISRDNSKNTLYLQMNSLRTEDTAVYYCASGSDYGDYLLVYWGQGTLVTVSS
VL: B6 VL with T31G, F51Y, N55K, D62N, A82S, S91N, F93L, T95S, S96I, V99W
B16: mAb10970 (antibody, V domains shown)
VH: EVQLVESGGGLVQPGGSLRLSCAASGFTVSSNYMSWVRQAPGKGLEWVSVIYSGGSTYYADSVKGRFTISRDNSKNTLYLQMNRLRADDTAVYYCVRDPVGRYYYGMDVWGQGTTVTVSS
VL: not shown

The binders below were run against T1, MERS-CoV (SARS-CoV-2) Spike Protein … (assay: Luminex bead assay, supernatant on antigen microspheres).
In the case of B1, the “Binding signal (MFI)” value is reported as 15 MFI.

What follows are binders tested against T2, MERS-CoV (SARS-CoV-2) Spike Protein S2 … in the same assay as above.
For B2, the “Binding signal (MFI)” value was 23 MFI.
For B3, the “Binding signal (MFI)” value was 19 MFI.

The binders below were run against Human SARS Coronavirus Spike S1 Subunit Protein (His Tag) (Sino 40150-V08B1) (Human SARS Coronavirus, UniProt P59594 14-667) (assay: Luminex bead binding, antigen on microspheres, antibody supernatant).
With B4 the MFI was 20 MFI.
Work on B5 yielded an MFI of 16 MFI.
Binder B6 has an MFI of 21 MFI.
B7 showed an MFI of 20 MFI.
B8 showed an MFI of 16 MFI.
B9 was tested, and the MFI was 16 MFI.
With B10 the MFI was 21 MFI.
With B11 the MFI was 15 MFI.
With B12 the MFI was 14 MFI.
B13 was tested, and the MFI was 5190 MFI.
With B14 the MFI was 20 MFI.

The binders below were run against T3, MERS-CoV (SARS-CoV-2) Spike Protein … in the same assay as above.
B4 gave an MFI of 16 MFI.
B15 gave an MFI of 15 MFI.
For B7, the MFI was 15 MFI.
Work on B8 yielded an MFI of 15 MFI.
With B9 the MFI was 15 MFI.
B12 gave an MFI of 15 MFI.
B13 was tested, and the MFI was 15 MFI.
Work on B16 yielded an MFI of 14 MFI.
In the case of B14, the MFI is reported as 16 MFI.

The binders below were run against T4, MERS-CoV (SARS-CoV-2) Spike Protein S2 … in the same assay as above.
In the case of B4, the MFI is reported as 20 MFI.
In the case of B15, the MFI is reported as 23 MFI.
B7 showed an MFI of 13 MFI.
Work on B8 yielded an MFI of 16 MFI.
B9 gave an MFI of 18 MFI.
B12 gave an MFI of 18 MFI.
With B16 the MFI was 16 MFI.
Binder B14 has an MFI of 16 MFI.

— patent US20220356230A1 (published 2022)
